In paper PMC12354141:

These substances were tested against FcγRIIIa/CD16a 158V, His-tagged (human) (assay: BLI).
Sequence of FcγRIIIa/CD16a 158V, His-tagged (human) (P08637 17-208): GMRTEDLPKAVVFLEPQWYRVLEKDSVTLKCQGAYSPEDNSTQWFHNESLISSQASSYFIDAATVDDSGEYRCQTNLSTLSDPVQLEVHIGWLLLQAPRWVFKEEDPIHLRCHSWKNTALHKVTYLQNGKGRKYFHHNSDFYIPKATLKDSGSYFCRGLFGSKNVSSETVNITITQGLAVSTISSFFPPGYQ

Row | Kd [µM] | Substance
1 | 15 | denosumab (as such; mean over the products) (antibody)

Each substance was assayed against human neonatal Fc receptor (FcRn), His-tagged (human) (UniProt P55899) (assay: BLI).

Row | Kd [µM] | Substance
2 | 0.0197 to 0.0292 | US Prolia^® (denosumab reference drug product, US-licensed) (antibody)
3 | 0.0177 to 0.0385 | EU Prolia^® (denosumab reference drug product, EU-licensed) (antibody)
4 | 0.0147 to 0.0362 | EU Xgeva^® (denosumab reference drug product, EU-licensed) (antibody)
5 | 0.0181 to 0.0335 | US Xgeva^® (denosumab reference drug product, US-licensed) (antibody)
6 | 0.0172 to 0.0301 | RGB-14-P (Gedeon Richter's proposed denosumab biosimilar to Prolia^®) (antibody)
7 | 0.0216 to 0.0272 | RGB-14-X (Gedeon Richter's proposed denosumab biosimilar to Xgeva^®) (antibody)
